Reference: patent US5847083, “Modified p53 constructs which enhance DNA binding” (The Wistar Institute of Anatomy and Biology)

Columns and labels:
Settings in all cases: chain copies: 4; label: 32P
p53 Arg284 delta364-393 [1] = target: T1, p53 Arg284 delta364-393 (Homo sapiens, UniProt P04637 SEQ:1-363); experiment: EMSA; enhanced vs wild type
Method: (§1) For analysis of DNA binding activity, these proteins were incubated with ^32P-labeled oligonucleotides and subjected to electrophoresis as described [Halazonetis (1993a and 1993b) and Waterman (1995), both cited above]. […] CCC-GAACA-TGTCC-CAACA-TGTTG-GGG, each contain a p53 binding site, which is underlined. […] Oligonucleotide Egadd45has the sequence [SEQ ID NO: 31] ACA-GAACA-TGTCT-AAGCA-TGCTG-GGGA. Oligonucleotide TF3, which contains three tandem repeats of [SEQ ID NO: 32] […], is a non-specific DNA [Halazonetis et al, *EMBO J.*, 12:1021–1028 (1993)].
(§2) Figure 4: FIG. 4 illustrates the effect of the Thr284 to Arg substitution on binding of wild-type p53 and tumor-derived p53 mutants to a high affinity DNA site, and to the sites in the p21^cip1 and gadd45 genes (oligonucleotides BC, Ep21 and Egadd45, respectively). Binding was assayed by gel retardation shift analysis on native electrophoretic gels. Only the region of the gel corresponding to the p53-DNA complexes is shown. The amino acids are abbreviated using the single letter code: Arg, R; Cys, C; Gln, Q; His, H; Lys, K.

p53 Ser249 = p53 Ser249 (Homo sapiens, UniProt P04637 SEQ:1-393); experiment: EMSA; not activated by PAb421
Method: as §1

p53 delta364-393 = p53 delta364-393 (Homo sapiens, UniProt P04637 SEQ:1-363); experiment: EMSA
Method: as §1, §2

p53 Arg284 delta364-393 [2] = target: T1, p53 Arg284 delta364-393; experiment: EMSA; enhancement not noted on this site
Method: as §1, §2

B1: oligonucleotide BC (dsDNA)
DNA 1: CCGGGCATGTCCGGGCATGTCCGGGCATGT
DNA 2: ACATGCCCGGACATGCCCGGACATGCCCGG
Does B1 bind (p53 Arg284 delta364-393 [1])?
Result: binds

Does B1 bind (p53 Ser249)?
Result: no binding

B2: oligonucleotide Ep21 (dsDNA)
DNA 1: CCCGAACATGTCCCAACATGTTGGGG
DNA 2: CCCCAACATGTTGGGACATGTTCGGG
Does B2 bind (p53 Arg284 delta364-393 [1])?
Result: binds

B3: oligonucleotide Egadd45 (dsDNA)
DNA 1: ACAGAACATGTCTAAGCATGCTGGGGA
DNA 2: TCCCCAGCATGCTTAGACATGTTCTGT
Which results are given for B3?
binding result (p53 delta364-393): binds; binding result (p53 Arg284 delta364-393 [2]): binds
